Experimental data reported in a protein production outcome set (Wang et al. 2014).

Test: label from the status in PepcDB records

| Sequence | protein production |
| --- | --- |
| MSDNYKFFRHDNCEYFPCHKVKDKETFNCLFCYCPLYFLENCGGNKSDFNGVKDCSNCLIPHSKNGYDYIINKIREVNKEKRAKNNLTLEHHHHHH | not failed |
| EQDIVANGGEVLGSETVGDVSLFFLNPVGHIHHWVTDAWGGSAELKFNSSPWFGNQDVAKFAMDAGASYDSQFYGVELKVTF | failed |
| MRITLVTDSTSDLPQDLRGRLGVRVVPLYVNLSGAIYRDWEEITPTEIFQKVREGAAFPTTSQPSPEDFARVYREALEEADHVLSLHISGKLSGTVQSAELAAQEFPGRVTVVDTQAASLGVGMMVLRAKELLEEGQSLEAVLAELERLRRDHFVRFSVATLEFLKRGGRIGGAQAFLGTLLNLKPVLTLKEGRVEAAGRARGEKKAREEILKAFRAWAEGRKRIRAYFLYSGDEDAVAALRQEVLASGLPVEEALVNELGAVIASHTGPGTYGFYAYSL | not failed |
| MSLSRRLTMHWFAQAPANIALIKYMGKKDENSNLPDNSSLSYTLSNLLSSVKLEKLPTKKDIWEPLTIPGAPEFNLSVEAQKRFIDHLVRLKEYFGYVGGFLIQSSNNFPHSSGLASSASSFAALTKCASIALSELTQKPLPSIDEQAQLSRLGSGSSCRSFYAPWALWTGDKVSAIDLPYKDLLHQVIVISSQEKEIPSRVAHKLVKTSPFYETRSERAEANLKLLLNAFENKDWTSIYQICWHEFLDMHQLFKTCEKPFSYITDNTLHILSVIEKFWNEKGDGPVVTMDAGPNVHLLYRSDQTDLARQFKSDHLVGNYDVLEGHHHHHH | not failed |
| MHSTIGRLLEQTADAYPDRDAVVYPDRNIRYTYAQFDSLCRQTAKGLMRMGIGKGDHVAIWASNISEWLAVQFATAKIGAVLVTVNTNYQAHELDYLLKQSDAAALIIMDSYRGTSYPDIVNSLIPELQEAKPGQLKSERYPFLKTLIYIGNKRLSGMYHWDDTEILAKTVTDAELEERMNSLDKDNVINMQYTSGTTGFPKGVMLTHFNVINNAANIAECMALTSQDRMCIPVPFFHCFGCVLGVLACVSVGAAMIPVQEFDPVTVLKTVEKEKCTVLHGVPTMFIAELHHPDFDAYDLSTLRTGIMAGSPCPSEVMKAVIERMGMKDITIAYGQTEASPVITQTRANDSFIRRVETTGRALPHTEVKIVEPGTCQEVQRGMQGELCTRGYHVMKGYYKDKDATRKAINHDGWLFTGDLAVMDEDGYCRITGRLKDMLIRGGENIYPREIEEFLYQHPAVLDVQVVGVPDAKFGEEAAAWIKLKDGKSVSPDELKAYCKGKIARHKIPRYVIFTDDYPMTAS | failed |
| MTEYNIALVGFGGVNRALAQLIAERNQAWKKQLGFSLKIVGISDLFLGSIVASQGLDAGLLSKLPATKGALAQLPGGQVEALNEQVIKDSGADIIAEATFTNPVDGEPASTFCRWALEQGKHVVTTNKGPIALHSAELKALAQRNLAAFEYEGAVMSGTPVIRMAKQSLAGSGLLGFEGILNGTSNFVLTRMEAGLGFAEAVAEAQALGYAEADPSADVEGFDVRLKVVILANELLDAQLTVSDVSCRGISGLTVKDLEQARAEGARWKLIGSAQRLADGSLQASVEPRLLPLAHPLAGIGGAINAVSFNTELLGAVTVSGPGAGRIETAFALLSDIIHIHQSRLAR | failed |
| MDKVSIIIPVYNVQSFLNECIESVLAQTYSNLEIILVNDGSTDNSGDICDYYSEIDGRIFVFHKNNGGLSDARNYGISRATGDYIYLLDSDDYLYKEDAIERMVEFSEKYNSEIVLGCYVEKREQHIINIVLEDEMIETISPVQAIQNIYNYDAYRAIFTVAHNKLYKRELFSTLCYPVGKLHEDEFLTYKLYLKAKNIIFFRYNTYAYRIRENSIMTGSYNIKRLHAVEALKERIYLLEKYPDLVFQSERALIKTMEVNLIELYKNNFYKEFHTLKTEYKKTIFDFIKKQRMLLKIKYYLKYCVVHFKILNCKRKKKINKLEHHHHHH | not failed |
| MAYNPKILQKPKEGEEITIKDNKLHVPNHPIIPFIEGDGIGSDITPAMIKVVDSAVQKAYKGEKKIAWYEVFVGEKCYQKFKDYKELSPEEQWLLPDTIEAINHYKVSIKGPLTTPIGEGFRSLNVALRQKMDLYVCLRPVRWYGSPSPVKEPQKVDMVIFRENSEDIYAGIEWQEGSAEAKKLIHFLQNELKVKKIRFPESSGIGVKPISKEGTERLVRKAIEYAIDNDKPSVTFVHKGNIMKYTEGAFMKWGYALAQKEFNAQVIDKGPWCSLKNPKNGKEIIIKDMIADAFLQQILLRPSEYSVIATMNLNGDYISDALAAMVGGIGIAPGANLNDTVGMFEATHGTAPKYAGLDKVNPGSIILSAEMMLRHMGWVEAADLIVSAMEKAIKSKKVTYDFARLMDGAKEVKCSEFASVMIENM | failed |
| MNLVQDKVTIITGGTRGIGFAAAKIFIDNGAKVSIFGETQEEVDTALAQLKELYPEEEVLGFAPDLTSRDAVMAAVGQVAQKYGRLDVMINNAGITSNNVFSRVSEEEFKHIMDINVTGVFNGAWCAYQCMKDAKKGVIINTASVTGIFGSLSGVGYPASKASVIGLTHGLGREIIRKNIRVVGVAPGVVNTDMTNGNPPEIMEGYLKALPMKRMLEPEEIANVYLFLASDLASGITATTVSVDGAYRP | not failed |
| MKKVSIIIPFKGQTEAELMLPLSSIYNQIGVDLSQLDIHLVNDGGKTIDLSKFDVLADRLEIHYHEIPNGGPGVARQYGIDNSISEYIMFIDADDVLYYVGALWPFYNASNQGHQMIRASYWEQIAGNPYTYTVHGNGDRKAAYGKWYKRSYIEMLGLRFMPDLPIYEDTYFVGLACELATDTCFLEEKVYMWLANPNSITRTVENKFNYQAHIYARENRYWFEMIRKWKPECLEHHHHHH | failed |
| MGHVLIEMMGIKKGDFVLDVGCGTGRQALNVAGIIGPAGKLTGIDPSSYRIELARKKFEGDSSGNVRFLVRQAENLQDIPDNSINHAYFCSSFHWVDDKKTALNEIFRVLRPGGKVGMTTLDRNSPNTMKALIDPILAKFGIERRHEWHRGMKKVTAPELHDLLSGAGFTSISIEPRAVPRKYNSPEEFLQHPEEKDSSRGILRDISNETLEKLRQEITEEFRKAQTPEDIGFGNITLFAIATKAQEGLEHHHHHH | not failed |
| MDDQSGDQMRPELTMPPAEAEALRMAYEEAEVILEYGSGGSTVVAAELPGKHVTSVESDRAWARMMKAWLAANPPAEGTEVNIVWTDIGPTGDWGHPVSDAKWRSYPDYPLAVWRTEGFRHPDVVLVDGRFRVGCALATAFSITRPVTLLFDDYSQRRWQHQVEEFLGAPLMIGRLAAFQVEPQPIPPGSLMQLIRTMTSP | not failed |
| MADKAFHTRLINMRRDLHEHPELSFQEVETTKKIRRWLEEEQIEILDVPQLKTAVIAEIKGREDGPVIAIRADIDALPIQEQTNLPFASKVDGTMHACGHDFHTASIIGTAMLLNQRRAELKGTVRFIFQPAEEIAAGARKVLEAGVLNGVSAIFGMHNKPDLPVGTIGVKEGPLMASVDRFEIVIKGKGGHASIPNNSIDPIAAAGQIISGLQSVVSRNISSLQNAVVSITRVQAGTSWNVIPDQAEMEGTVRTFQKEARQAVPEHMRRVAEGIAAGYGAQAEFKWFPYLPSVQNDGTFLNAASEAAARLGYQTVHAEQSPGGEDFALYQEKIPGFFVWMGTNGTEEWHHPAFTLDEEALTVASQYFAELAVIVLETIK | not failed |
| GPLQVSNARLLFPISMPEDEGVVRLVVNNTDESDLQVAVVSLPSFVSLDDRAFRLQAREPRELNLSLAVPRNMPPGMKDEPLVLEVTSPETGKKAVDSVMVSLPLVDNFPALTAAQTGVMELSTYLDMGQLDGETTKAAIEIRNVGAGPLRLHSVTTRNPALTAVPDRTEIKPGGSTLLRIAVDPQVMKAEGWQSIAADISIICNDPQAPLRRIKVKAEL | not failed |
| MSLHTSHVIPAPRIDVWEWHTRPGAVFRLTPPFLPLRPLEQATSLAKGTTVFALPAGLRWEARHDLSGYIQHHRFTDVCINAPVKSLASWRHIHDFTDHPSGTLITDTVHTRAPRTTLSPAFAYRQHQLINDIQAQQRFYELTRSNPTESTPLTIGLTGSRGLVGRALTAQLTTLGHTVVQLVRGESKPHQRHWDPAHPAPNLLEGLDALIHLAGEPILGRFNDAHKADIRDSRIEPTRQLSQLVQKSSTCRTMVSASAIGYYGHARGDEILDEGSTQGDDFLASVCEEWEAASRTDATSNKRIVNIRTGVVMSGRGGMLPVLKAVFSVGLGGPFRGSNPWMSWIAIDDLCDIYIRAVLDPKLSGAINAVAPNPIKNQDFVDALAKELKRPAKMTISSLGPAILLGQQGAKELALADQRVQPRVLNNLDHHFRYVDIRSCLAHELGGENLLDI | failed |
